Measurements taken from publication PMC6158740 (Nucleic Acids Research, 2018).

B1: BBC742/BBC743 dsDNA probe (dsDNA)
DNA 1: ATTCCGGGGATCCGTCGACCTGCAGTTCAGAAGCAGCTCCAGCCTACA
DNA 2: TGTAGGCTGGAGCTGCTTCTGAACTGCAGGTCGACGGATCCCCGGAAT

Experiments:
ComM [1] = target: ComM (Vibrio cholerae, UniProt Q9KVV6); conditions: AMP-PNP, nonhydrolyzable analogue; pH 7.5, 37 °C
ComM [2] = target: T1, ComM (Vibrio cholerae, UniProt Q9KVV6 1-507); experiment: EMSA
T1 sequence: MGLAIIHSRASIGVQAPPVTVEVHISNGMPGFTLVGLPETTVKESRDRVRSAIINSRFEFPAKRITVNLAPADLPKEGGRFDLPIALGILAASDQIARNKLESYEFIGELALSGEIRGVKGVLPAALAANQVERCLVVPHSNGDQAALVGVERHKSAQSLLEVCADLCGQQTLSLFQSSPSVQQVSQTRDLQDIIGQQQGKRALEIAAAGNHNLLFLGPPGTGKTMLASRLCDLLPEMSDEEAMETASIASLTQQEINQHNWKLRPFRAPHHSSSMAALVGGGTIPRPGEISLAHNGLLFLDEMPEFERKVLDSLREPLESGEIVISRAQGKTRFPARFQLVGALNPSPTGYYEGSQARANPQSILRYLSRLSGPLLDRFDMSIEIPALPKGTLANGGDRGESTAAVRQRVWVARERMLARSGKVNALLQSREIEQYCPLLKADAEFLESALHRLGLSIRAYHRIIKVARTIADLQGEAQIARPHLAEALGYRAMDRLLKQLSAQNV

| Molecule | three-strand branch migration assay, gel; oligomerization assay (ComM [1]) | binding result (ComM [2]) |
| --- | --- | --- |
| Nc1ncnc2c1ncn2[C@@H]1O[C@H](COP(=O)(O)OP(=O)(O)NP(=O)(O)O)[C@@H](O)[C@H]1O [AMP-PNP] | This activity was inhibited when ComM was incubated with AMP-PNP |  |
| ATTCCGGGGATCCGTCGACCTGCAGTTCAGAAGCAGCTCCAGCCTACA (ssDNA) [BBC742 ssDNA probe] |  | binds |
| B1 |  | binds |
